Laboratory results: the DeepSol protein solubility set

experiment: soluble on expression in E. coli; label from the status in PepcDB or PDB records

| Sequence | soluble on expression in E. coli |
| --- | --- |
| MVDTMMNTNTDGVTAVPPIFPLPSTTPNRNNNNELAMLAQKQIVAGLLLQQPTIVQAAVNGTNSQKHLADIDYTNVIQTLQALGTTNLKAFSLLLDPQSQTSQLISEDTRPSASSSPSSTATAVSNSGQSNATSTSSSSTEPEYKPRNVREKVYADGYIMSFDKKSCCGTKEFWRCERKNDCNARMHSDINTREIVRKLHPHNHEKPSPEELAFYEQDFSTLHPNYCHPVKSINRSYMQRKLSRASHVSQALPIAPQQIKAEPMEVDTTNQTIQNFQQNNNLMLLASINAAATAAAAATSAGISPPVVGQKRVSTTVMPITLKSQRTTPKEEEDSSQLMSQEEFRITYELTKKLMEMMKPKTEIGVRWQGDEGSILLFLSHDNGAEENVFFPVVVMNRDEKSLITALEGFTGKRCEGKLALCYSQRVNVLVHEALISNWTHGKLFLVNTDAPALWRLTPVDAFGEPLNHV | not soluble |
| MGSDKIHHHHHHMEDTQSVLQEYGLTAQFIEPVSPLVWKVYTDYGIFALKKLKEGRGKHFTDHMVAIEEKGFRSFVPVYRTNSGEFFSAGIQYGDIYYLMPWLQFDQEEERDQKHAYLFRETARLHERTAQELKVRRDEIERYYGQTKKKWEQDKIFYEQFVDRAEKEWYLSPFELQAITYFSETISAVNFALERLEDWYESAKEKDVSRVVMNHGSLSIHHFLYNDAGTGYFTNFERASVGPPQNDLLGFYTKMFRGFPKACPECVEWFYGYTKSFPLREAEVSLFLSYMAYPAAMYKVLNGYQTGKRQHEKEECTQLLKAYWQMKNIEPFVMKIHQIEQEKKFQAENESTS | not soluble |
| MTKKYLTFDCYGTLINTEPLYQWVANLGLAVGLDPLTVRKAYATYEDDPASVNPYLDYSTLVRADLKHLDRLFEQRHFFESHYVECLEVQRHLLPYADVIPTLTAWQQLGYQLIIMSNSSWDIMPANIAALKVSFTAVVTAEDIQAYKPALAFFETVQERFKLTADNHWHIARGYESDVVPASAMQWPMIWINRDQRQPTSSERPTHMVTDLAAVKQWVN | not soluble |
| MYDFAIIGSGVAGATLAKELRYRYKVAVIEKGKKPSYASEGKNVEINYVYGLGGSGVYSLGNAIKTEIKGYKIDKDIYKEIWEELKIKAPKDDFLNDIDKAFIELGFEKMEKFIDFDRCNKCGECARKICKAKWTPLNYLKESNANIITEFNIKAINYSNYYEILDDKGRKIKAKNLIISAGGINSPRILKKMIDDENIGKNLFIDTFVTVGGILEDSYLNKDISMLVYKKYKNFMLATHYSKLLINEIKKDYKDVKEKDIVGIMIKIKDENNGVVLDNDVKKEITKEDFKTLARGICKATKYLYKLGVDDIYTTIPRGSHPGGSLSLVVDEFEVREGLYVCDASLFKEALGVPPIVSIIALSKKFVREILLEHHHHHH | not soluble |
| MPTIQQLVRKGRRDKISKVKTAALKGSPQRRGVCTRVYTTTPKKPNSALRKVARVKLTSQVEVTAYIPGEGHNLQEHSMVLVRGGRVKDLPGVRYKIIRGSLDTQGVKNRKQARSRYGAKKEKG | not soluble |
| MRSYAIGDIHGHLSLLQEIHGRIAADRARTGDDEAPVVHIGDLVDRGPDSRGVVEYLRQGIEQGENWVVLKGNHDRMFAGFLRDPAHQDPGLRGDLSWLHPRLGGGPTLESYGVAHAADRPVAIVHREAVALVPAEHVAFIEALPAVYRRDEALFVHAGIRPGVPLAEQIEDDLVWIREPFLSDPRDHGMLVVHGHTAIDAVTHYGNRLNLDSGAAYGGPLSAVVIEGRSVWQLGPEGRRPIALEHHHHHH | not soluble |
| GSMEPPNLYPVKLYVYDLSKGLARRLSPIMLGKQLEGIWHTSIVVHKDEFFFGSGGISSCPPGGTLLGPPDSVVDVGSTEVTEEIFLEYLSSLGESLFRGEAYNLFEHNCNTFSNEVAQFLTGRKIPSYITDLPSEVLSTPFGQALRPLLDSIQIQPPGGSSVGRPNGQS | soluble |
| MSLSDYAPGMTGGPTGFEGAERFQYNNTMSEGRAIEGIKALQAAGNAPAKISMLLTDGAIGQITKPFPEGGPSAKEVWERETGIEIDIVGAPAEDIFKKVMQDVTTGGGTFDIYTGPWNSTGDLVSSGGAVNCSDFVAKYQPDWADPERGTPTPEMEKLLYTYAGDYYSFSLDGDFQTWFYLKGLYEDPRVQDAFLSETGVALKTPDTWEEVDRISKFFTGKDFGNGPMYGNGNLMSPFWGLATFYARFASMDFPNYHFFDEDGNPNLNSDLGIQCAEEHVRSFEWCPPDALTFTWAEAYATMWNLQIPHTAIYTNLVKFGDGYNADGTPKSKATGMIGSHLPVGRRFGDQLNRRSVLYYHITAWISSQSQHPEAVYLFLQWLSSTRTYTWMAGNPGGYFDPMQQANFKEPLVASTYHPYAMETIPQTIARSVPSINFAGQTALDNALDEEIQAAITGQKSAREAMDAAQSKWERIIKRQKRNGIVDAIKASRATWPTIVDEGHHHHHH | soluble |
| MRISLPVAEAAAAGGRAGKHGKAITFLTPDDTAVYFDLKQVKIVDGHLPTHVFSLNCLRRYARMDSRNMMLHGANLDNSHLDVKVNFLFENFKHFSVFLKLTKSSK | soluble |
| NGEHTTDIEEQYLEAIRGATQRITLANAYFFPSYRFLRELRNASRRGVKVTLILQGQPDMPFVRVCSRLTYTYLLRDGVVIHEYKQRALHGKVALIDQEWSTVGSSNLDPLSLALNLEANLFIRDKALNQHLQGHLMELAAAHSTQMSLKGAAR | not soluble |
| MGHHHHHHSHMSSRGHSTLPRTLMAPRMISEGDIGGIAQITSSLFLGRGSVASNRHLLQARGITCIVNATIEIPNFNWPQFEYVKVPLADMPHAPIGLYFDTVADKIHSVSRKHGATLVHCAAGVSRSATLCIAYLMKFHNVCLLEAYNWVKARRPVIRPNVGFWRQLIDYERQLFGKSTVKMVQTPYGIVPDVYEKESRHLMPYWGI | not soluble |
| MTSHKRFCLSSRSPSYHTTELSLPLYIKFISWDFDCFQVDDVGFRPIFSAKTPNSPFTVEILRSGISGIVFDERETNTTANDGRMNFAMEYIIDKLLGDRCVPITVETLQISVDRVHYIFSKNLNMICKNLDVSIIETGVTLDTILHTSSYPLKSLSLSNTWAFAHPIILTAELLIVPTSDHFHRITNARVHAISLSGDFKLFIYEWLENGREIGTEFTIGGFRGRDYAKKMVCDIKEEFDERFQVVRRSHFPLSIAIKMNDFSEIYVFYDDIMERSKVYFKVQPTQF | not soluble |
| MSLGQKGHKDSLYPCGGTPESSLHEALDQCMTALDLFLTNQFSEALSYLKPRTKESMYHSLTYATILEMQAMMTFDPQDILLAGNMMKEAQMLCQRHRRKSSVTDSFSSLVNRPTLGQFTEEEIHAEVCYAECLLQRAALTFLQDENMVSFIKGGIKVRNSYQTYKELDSLVQSSQYCKGENHPHFEGGVKLGVGAFNLTLSMLPTRILRLLEFVGFSGNKDYGLLQLEEGASGHSFRSVLCVMLLLCYHTFLTFVLGTGNVNIEEAEKLLKPYLNRYPKGAIFLFFAGRIEVIKGNIDAAIRRFEECCEAQQHWKQFHHMCYWELMWCFTYKGQWKMSYFYADLLSKENCWSKATYIYMKAAYLSMFGKEDHKPFGDDEVELFRAVPGLKLKIAGKSLPTEKFAIRKSRRYFSSNPISLPVPALEMMYIWNGYAVIGKQPKLTDGILEIITKAEEMLEKGPENEYSVDDECLVKLLKGLCLKYLGRVQEAEENFRSISANEKKIKYDHYLIPNALLELALLLMEQDRNEEAIKLLESAKQNYKNYSMESRTHFRIQAATLQAKSSLENSSRSMVSSVSEGHHHHHH | soluble |
| SKKEHVLHCQFSAWYPFFRGVTIKSVILPLPQNVKDYLLDDGTLVVSGRDDPPTHSQPDSDDEAEEIQWSDDENTATLTAPEFPEFATKVQEAINSLGGSVFPKLNWSAPRDAYWIAMNSSLKCKTLSDIFLLFKSSDFITRDFTQPFIHCTDDSPDPCIEYELVLRKWCELIPGAEFRCFVKENKLIGISQRDYTQYYDHISKQKEEIRRCIQDFFKKHIQYKFLDEDFVFDIYRDSRGKVWLIDFNPFGEVTDSLLFTWEELISENNLNGDFSEVDAQEQDSPAFRCTNSEVTVQPSPYLSYRLPKDFVDLSTGEDAHKLIDFLKLKRNQQEDD | soluble |
